# According to paper PMC3807654 (Cell Reports, 2012):
# B1: Atto550-labeled SERF1a (Cys-SERF1a-Cys, N- and C-terminal double cysteine mutant) (natural protein)
# chain: MC(Atto550 maleimide)ARGNQRELARQKNMKKTQEISKGKRKEDSLTASQRKQRDSEIMQEKQKAANEKKSMQTREKC(Atto550 maleimide)
# Biological target: human α-synuclein, monomeric, full length (human, UniProt P37840 1-140)
# Assay: fluorescence polarisation
binder,measurement,value
B1,Kd,8.04 ± 2.09 µM
